Results as given in PMC3109874.

Molecular target: dicamba monooxygenase (DMO) (Stenotrophomonas (formerly Pseudomonas) maltophilia, strain DI-6) (UniProt Q5S3I3)
Assay: crystal structure

## dicamba monooxygenase (DMO) (from UniProt Q5S3I3 2-339) (enzyme)
  stoichiometry N: 3
